Patent US20230038638A1, “COMPLEMENT FACTOR I-RELATED COMPOSITIONS AND METHODS” (published 2023)

Experiments:
human C4b (human) = biological target: T1, human C4b (human) (UniProt P0C0L4)
T1 sequence: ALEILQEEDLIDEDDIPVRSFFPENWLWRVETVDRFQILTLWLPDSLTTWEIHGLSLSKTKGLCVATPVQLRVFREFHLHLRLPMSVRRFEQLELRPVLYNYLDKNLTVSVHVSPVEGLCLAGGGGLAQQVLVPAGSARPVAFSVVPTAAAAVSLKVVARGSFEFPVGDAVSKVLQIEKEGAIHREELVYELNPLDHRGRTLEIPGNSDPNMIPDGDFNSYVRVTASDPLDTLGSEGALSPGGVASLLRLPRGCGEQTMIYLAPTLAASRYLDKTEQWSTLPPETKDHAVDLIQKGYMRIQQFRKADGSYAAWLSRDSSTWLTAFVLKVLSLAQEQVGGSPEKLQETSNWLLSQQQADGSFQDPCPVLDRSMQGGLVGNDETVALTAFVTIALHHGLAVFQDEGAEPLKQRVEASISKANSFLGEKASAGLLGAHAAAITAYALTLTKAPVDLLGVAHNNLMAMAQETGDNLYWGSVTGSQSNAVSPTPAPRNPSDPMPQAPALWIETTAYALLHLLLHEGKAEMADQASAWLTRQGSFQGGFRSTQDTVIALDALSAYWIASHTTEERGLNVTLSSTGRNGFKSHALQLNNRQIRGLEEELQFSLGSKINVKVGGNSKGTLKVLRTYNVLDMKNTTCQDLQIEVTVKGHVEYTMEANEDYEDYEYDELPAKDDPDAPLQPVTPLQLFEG

[1] = biological target: soluble human C3b (human) (UniProt P01024)

Substance | C4b Screen Ref Fold (fold of CFI-HSA wild type) (human C4b (human)) | iC3b Screen Ref Fold (fold of CFI-HSA wild type) [1] | C4b Screen Ref Fold (fold of reference) (human C4b (human)) | iC3b Screen Ref Fold (fold of reference) [1]
CFI-HSA variant N531G; S507A (enzyme) | -0.07 | -0.03 | – | –
CFI-HSA variant N531H (enzyme) | – | – | 1.16 | 0.74
CFI-HSA variant N531I (enzyme) | – | – | 0.36 | 0.24
CFI-HSA variant N531M; Y403F; K504Y; E457G; E461Q (enzyme) | 3.46 | 0.7 | – | –
CFI-HSA variant N531P (enzyme) | – | – | 0.08 | -0.01
CFI-HSA variant N531R (enzyme) | – | – | 0.58 | 0.75
CFI-HSA variant N531T (enzyme) | – | – | 0.31 | 0.19
CFI-HSA variant N531V (enzyme) | – | – | 0.75 | 0.57
CFI-HSA variant N531W (enzyme) | – | – | 0.95 | 0.29
CFI-HSA variant N531Y (enzyme) | – | – | 2.94 | 0.91
CFI-HSA variant P558G (enzyme) | – | – | 0.4 | 1.21
CFI-HSA variant P558S (enzyme) | – | – | 0.77 | 1.56
CFI-HSA variant P558S; F559L; I560V; Y563H (enzyme) | – | – | 0.63 | 1.24
CFI-HSA variant P558S; S507A (enzyme) | 0.08 | -0.04 | – | –
CFI-HSA variant Q373G (enzyme) | 0 | 0.02 | – | –
CFI-HSA variant Q409D (enzyme) | – | – | 0.09 | 0.14
CFI-HSA variant Q409G (enzyme) | – | – | 0.36 | 0.33
CFI-HSA variant Q409Y (enzyme) | – | – | 0.29 | -0.01
CFI-HSA variant R314A (enzyme) | – | – | 1.83 | 0.85
CFI-HSA variant R388G (enzyme) | 0.18 | 0.22 | – | –
CFI-HSA variant R462G (enzyme) | 0.25 | 0 | – | –
CFI-HSA variant R557A; N531D; Y403F; K504Y; E457G; E461Q (enzyme) | 3.51 | 0.42 | – | –
CFI-HSA variant R557A; N531M; Y403F; K504Y; E457G; E461L (enzyme) | 3.18 | 0.46 | – | –
CFI-HSA variant R557A; N531M; Y403F; K504Y; E457G; E461T (enzyme) | 3.31 | 0.4 | – | –
CFI-HSA variant R557A; N531M; Y403F; K504Y; E457G; E461V (enzyme) | 3.17 | 0.46 | – | –
CFI-HSA variant R557A; N531M; Y403F; K504Y; E457N; E461L (enzyme) | 2.29 | 0.28 | – | –
CFI-HSA variant R557A; N531M; Y403F; K504Y; E457N; E461Q (enzyme) | 3.18 | 0.36 | – | –

Substance | C4b Screen Ref Fold (fold of CFI-HSA wild type) (human C4b (human)) | iC3b Screen Ref Fold (fold of CFI-HSA wild type) [1] | C4b Screen Ref Fold (fold of reference) (human C4b (human)) | iC3b Screen Ref Fold (fold of reference) [1]
CFI-HSA variant R557A; N531M; Y403F; K504Y; E457N; E461T (enzyme) | 3.13 | 0.24 | – | –
CFI-HSA variant R557A; N531M; Y403F; K504Y; E457N; E461V (enzyme) | 3.2 | 0.36 | – | –
CFI-HSA variant R557A; S507A (enzyme) | 0.08 | -0.02 | – | –
CFI-HSA variant T346H (enzyme) | – | – | 1.81 | 0.67
CFI-HSA variant T346K (enzyme) | – | – | 0.57 | 0.96
CFI-HSA variant T346K; K504D; E530K (enzyme) | – | – | -0.02 | 0.4
CFI-HSA variant T346R (enzyme) | – | – | 0.54 | 0.95
CFI-HSA variant T377G; N422K; D425K; E457G; E461Q; E530F; N531G (enzyme) | 3.74 | 0.87 | – | –
CFI-HSA variant T377G; S507A (enzyme) | 0.05 | -0.01 | – | –
CFI-HSA variant T377G; Y408M; N422K; E457G; E461Q; E530F; N531G (enzyme) | 2.93 | 1.15 | – | –
CFI-HSA variant V390G (enzyme) | – | – | 0.5 | 0.35
CFI-HSA variant V463G (enzyme) | 0.08 | 0.09 | – | –
CFI-HSA variant W375G (enzyme) | 0.08 | -0.03 | – | –
CFI-HSA variant W381A (enzyme) | – | – | 0.09 | -0.01
CFI-HSA variant W381A; P384A (enzyme) | – | – | -0.05 | -0.03
CFI-HSA variant W381A; ΔP384 (enzyme) | – | – | -0.05 | 0.01
CFI-HSA variant W381G; P384A; V390G (enzyme) | – | – | 0.26 | -0.01
CFI-HSA variant W381G; P384G; V390G (enzyme) | – | – | 0.12 | -0.02
CFI-HSA variant W381G; V390G (enzyme) | – | – | 0.04 | -0.01
CFI-HSA variant Y372G (enzyme) | – | – | 0.08 | 0
CFI-HSA variant Y393G (enzyme) | -0.01 | 0.71 | – | –
CFI-HSA variant Y403F; D425K; E457G; N531G (enzyme) | 3.85 | 0.22 | – | –
CFI-HSA variant Y408F; K504Y (enzyme) | 1.67 | 0.97 | – | –
CFI-HSA variant Y408F; N531M (enzyme) | 1.77 | 1.92 | – | –
CFI-HSA variant Y408F; S507A (enzyme) | 0.07 | -0.02 | – | –
CFI-HSA variant Y408M; E530F (enzyme) | 0.11 | 0.95 | – | –
CFI-HSA variant Y408M; E530F; F537K; K504R (enzyme) | 0.05 | 0.01 | – | –
